Paper PMC10572602, “Molecular Mechanism of STIL Coiled-Coil Domain Oligomerization” (International Journal of Molecular Sciences, 2023)
Numbering of substitutions follows the chain as printed. Numbers in names are those of the source. Blank lines part the entries; values can stand above or below the molecule they belong to. No end group written: not given here.

Assays:
[1] = molecular target: PLK4 884-970 (Homo sapiens) (UniProt O00444); experiment: ITC; conditions: cited from earlier work
STIL CCD_(718–749) L736E = experiment: crystal structure; L736E crystallized at 0.9 mM peptide, 50 mM Tris pH 8.0, 10% v/v MPD, 4 °C; 1.67 Å
[2] = test system: Stil−/− mouse embryonic fibroblasts; conditions: full-length STIL expressed in Stil−/− mouse embryonic fibroblasts; ref [14]; cited from earlier work
Excerpt: Presumably, this is due to the disruption of the hydrophobic CC interactions upon mutation from the hydrophobic Leu to the charged Glu. […] Other ...

[3] = molecular target: T1, WT STIL CCD peptide labelled with 7-(Diethylamino)coumarin-3-carboxylic acid (7-(Diethylamino)coumarin-3-carboxylic acid on the N-terminus; C-terminal amide); experiment: other fluorescence titration; fluorescence read on a Monolith NT.115 (micro-scale thermophoresis instrument); 5 µM coumarin-labelled peptide with unlabelled peptide 9 nM to 300 µM; 25 mM sodium phosphate pH 6.8, ionic strength 154 mM (NaCl), 5% DMSO, room temperature (24 °C); Hill fit; apparent; taken by the paper as dimer to monomers; conditions: both partners purified
T1 construct: STIL coiled-coil domain, residues 718-749; also called labeled-WT CCD; fluorophore-labelled peptide; source: synthetic peptide (Fmoc-SPPS, fluorophore coupled on the resin, RP-HPLC purified)
T1 peptide: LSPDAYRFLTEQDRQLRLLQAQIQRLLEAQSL

[4] = molecular target: the molecule itself; experiment: AUC; sedimentation equilibrium, starting concentrations 5, 10 and 20 µM, unlabelled peptide, no DMSO; 20 °C, sodium phosphate pH 6.8 with NaCl; fitted to a single ideal species (N) and, for the WT, to a dimer-tetramer model (apparent KD: tetramer to dimers)
[5] = molecular target: T2, STIL CCD peptide with a different fluorophore (fluorescence polarization) (a fluorophore other than the coumarin, not named, position not stated; C-terminal amide); experiment: fluorescence polarisation; same STIL CCD peptide with a different fluorophore; Hill fit; dimer to monomers; conditions: both partners purified
T2 construct: STIL coiled-coil domain, residues 718-749; also called same STIL CCD peptide and different fluorophore; source: synthetic peptide
T2 peptide: T1 peptide

[6] = molecular target: the molecule itself; experiment: AUC; sedimentation equilibrium, starting concentrations 5, 10 and 20 µM, unlabelled peptide, no DMSO; 20 °C, sodium phosphate pH 6.8 with NaCl; fitted to a single ideal species (N) and, for the WT, to a dimer-tetramer model (apparent KD: tetramer to dimers); remark: listed apart in the source
[7] = molecular target: the molecule itself; experiment: AUC; sedimentation velocity, 12.5 µM peptide, c(s) distribution; 20 °C, 25 mM sodium phosphate pH 6.8, ionic strength 154 mM (NaCl)
[8] = molecular target: the molecule itself; experiment: AUC; sedimentation velocity, 500 µM peptide, c(s) distribution; 20 °C, 25 mM sodium phosphate pH 6.8, ionic strength 154 mM (NaCl)
[9] = molecular target: the molecule itself; experiment: AUC; sedimentation velocity, 10 µM peptide, c(s) distribution; 20 °C, 25 mM sodium phosphate pH 6.8, ionic strength 154 mM (NaCl)
[10] = molecular target: the molecule itself; experiment: AUC; sedimentation velocity, 75 µM peptide, c(s) distribution; 20 °C, 25 mM sodium phosphate pH 6.8, ionic strength 154 mM (NaCl)

Sequence of PLK4 884-970 (Homo sapiens) (O00444 884-970): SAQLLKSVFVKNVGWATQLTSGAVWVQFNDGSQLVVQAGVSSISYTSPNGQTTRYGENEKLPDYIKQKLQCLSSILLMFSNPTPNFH

Molecule: STIL CCD (from UniProt Q15468)
Kd [1]: 0.28 µM

stoichiometry N (STIL CCD_(718–749) L736E): 2
Molecule: STIL CCD_(718–749) L736E (peptide)

B1: full-length L736E mutant: full-length STIL protein with L736E mutation (protein, UniProt Q15468 1-1287, looked up, variant L736E)
chain: MEPIYPFARPQMNTRFPSSRMVPFHFPPSKCALWNPTPTGDFIYLHLSYYRNPKLVVTEKTIRLAYRHAKQNKKNSSCFLLGSLTADEDEEGVTLTVDRFDPGREVPECLEITPTASLPGDFLIPCKVHTQELCSREMIVHSVDDFSSALKALQCHICSKDSLDCGKLLSLRVHITSRESLDSVEFDLHWAAVTLANNFKCTPVKPIPIIPTALARNLSSNLNISQVQGTYKYGYLTMDETRKLLLLLESDPKVYSLPLVGIWLSGITHIYSPQVWACCLRYIFNSSVQERVFSESGNFIIVLYSMTHKEPEFYECFPCDGKIPDFRFQLLTSKETLHLFKNVEPPDKNPIRCELSAESQNAETEFFSKASKNFSIKRSSQKLSSGKMPIHDHDSGVEDEDFSPRPIPSPHPVSQKISKIQPSVPELSLVLDGNFIESNPLPTPLEMVNNENPPLINHLEHLKPLQPQLYDEKHSPEVEAGEPSLRGIPNQLNQDKPALLRHCKVRQPPAYKKGNPHTRNSIKPSSHNGPSHDIFEKLQTVSAGNVQNEEYPIRPSTLNSRQSSLAPQSQPHDFVFSPHNSGRPMELQIPTPPLPSYCSTNVCRCCQHHSHIQYSPLNSWQGANTVGSIQDVQSEALQKHSLFHPSGCPALYCNAFCSSSSPIALRPQGDMGSCSPHSNIEPSPVARPPSHMDLCNPQPCTVCMHTPKTESDNGMMGLSPDAYRFLTEQDRQLRLEQAQIQRLLEAQSLMPCSPKTTAVEDTVQAGRQMELVSVEAQSSPGLHMRKGVSIAVSTGASLFWNAAGEDQEPDSQMKQDDTKISSEDMNFSVDINNEVTSLPGSASSLKAVDIPSFEESNIAVEEEFNQPLSVSNSSLVVRKEPDVPVFFPSGQLAESVSMCLQTGPTGGASNNSETSEEPKIEHVMQPLLHQPSDNQKIYQDLLGQVNHLLNSSSKETEQPSTKAVIISHECTRTQNVYHTKKKTHHSRLVDKDCVLNATLKQLRSLGVKIDSPTKVKKNAHNVDHASVLACISPEAVISGLNCMSFANVGMSGLSPNGVDLSMEANAIALKYLNENQLSQLSVTRSNQNNCDPFSLLHINTDRSTVGLSLISPNNMSFATKKYMKRYGLLQSSDNSEDEEEPPDNADSKSEYLLNQNLRSIPEQLGGQKEPSKNDHEIINCSNCESVGTNADTPVLRNITNEVLQTKAKQQLTEKPAFLVKNLKPSPAVNLRTGKAEFTQHPEKENEGDITIFPESLQPSETLKQMNSMNSVGTFLDVKRLRQLPKLF
modifications: full-length
notes: full-length STIL protein with L736E mutation
formation of centrosomes and cilia (in words) [2]: completely disrupts the formation of centrosomes and cilia

B2: WT STIL: full-length wild-type STIL protein (protein, UniProt Q15468 1-1287, looked up)
chain: B1 chain with E736L
modifications: full-length
notes: full-length wild-type STIL protein
formation of centrosomes and cilia (in words) [2]: rescues this phenotype

Kd [3]: 8 ± 2 µM
Kd [5]: 8.5 ± 0.4 µM
B3: STIL CCD_(718–749) WT (peptide)
peptide: LSPDAYRFLTEQDRQLRLLQAQIQRLLEAQSL-NH2
notes: STIL (SCL/TAL1 Interrupting Locus) coiled-coil domain, residues 718-749; 32-residue peptide, unlabelled; also called WT STIL CCD peptide; WT CCD; source: synthetic peptide (Fmoc-SPPS on rink amide, RP-HPLC purified)
stoichiometry N [4]: 2.9 ± 0.04
Kd [6]: 68 ± 2 µM
stoichiometry N [7]: 2 × monomer mass
stoichiometry N [8]: 3.4 × monomer mass
stoichiometry N [9]: 1.7
stoichiometry N [10]: 3.27 × monomer mass
